Experiments:
[1] = molecular target: GST-Nup358 fragment 2500-C (amino acid 2500 to the COOH terminus) (UniProt P49792); assay: solid-phase binding assay in microtiter wells
[2] = molecular target: GST-Nup358 fragment amino acids 2550-2837 (region between Ran-binding domains three and four, without FXFG repeats) (UniProt P49792); assay: solid-phase binding assay in microtiter wells

Question: “SUMO-1-modified NΔ419 (RanGAP1 amino acids 420-589) (from UniProt P46061 420-589) (complex)” was tested. Which percent of added protein bound [1] did it give?
Answer: 20%

Question: And the fold reduction in binding against the domain containing FXFG repeats (2503-2893) [2]?
Answer: 5 fold

Reference: publication PMC2140169
